These results are taken from US20180256699A1 (University of Texas, published 2018).

In assay [1] the target is T1, CAT400, catalytic domain of ACT, residues 1-400 (Bordetella pertussis, UniProt J7QLC0 1-400). The assay can be described thus: ELISA: CAT400 coated equimolar with ACT, M1H5 IgG titrated from 1 nM, detected with anti-human Fc-HRP. A general note: An ELISA detects its analyte on a solid surface through an enzyme-linked reagent.
The target in assay [2] is T2, HP1096*, hydrophobic domain of ACT, residues 399-1096, MBP fusion, acylated (Bordetella pertussis, UniProt J7QLC0 399-1096). The assay can be described thus: ELISA: HP1096* coated equimolar with ACT, M1H5 IgG titrated from 1 nM, detected with anti-human Fc-HRP.
The target in assay [3] is T3, Bordetella adenylate cyclase toxin (ACT), full-length, acylated (Bordetella pertussis, UniProt J7QLC0 1-1706). The assay is described as follows: cell-based or functional assay.
The target in assay [4] is T4, RTX751, RTX domain of ACT, residues 751-1706, non-acylated (Bordetella pertussis, UniProt J7QLC0 751-1706).
T4 construct: Expressed without CyaC
The assay is described as follows: method and antibody format not stated.

Assay [5] has as its target T2, HP1096*, hydrophobic domain of ACT, …. The assay is described as follows: ELISA: HP1096* coated equimolar with ACT, M2B10 IgG titrated from 1 nM, detected with anti-human Fc-HRP.
Assay [6] deals with T1, CAT400, catalytic domain of ACT, …. The assay can be described thus: ELISA: CAT400 coated equimolar with ACT, M2B10 IgG titrated from 1 nM, detected with anti-human Fc-HRP.
The target of the next assay is T5, Br-RTX751 (Bordetella bronchiseptica).
T5 construct: fragment
The assay can be described thus: ELISA: Br-RTX751 coated, M2B10 IgG titrated.

In assay [7] the target is T3, Bordetella adenylate cyclase toxin …. The assay can be described thus: ELISA: ACT coated, M2B10 IgG titrated from 1 nM, detected with anti-human Fc-HRP.
The target of assay [8] is RTX985, RTX domain of ACT, residues 985-1706 (Bordetella pertussis, UniProt J7QLC0 985-1706).
For assay [9], the target named is T4, RTX751, RTX domain of ACT, residues ….
Assay [10] shares this target. The assay is described as follows: ELISA: Bp-RTX751 coated, M2B10 IgG titrated.
The target in a further assay is T6, Bpp-RTX751 (Bordetella parapertussis).
T6 construct: fragment
The assay is described as follows: ELISA: Bpp-RTX751 coated, M2B10 IgG titrated.

Where two headings read alike, the source gives them in different places.

B1: M1H5 chimeric IgG1/κ antibody (antibody, V domains shown)
VH: EVNLVESGGDLVKPGGSLKLSCAASGFTFSSYGMSWVRQTPDKRLEWVATISSGGTYTYYPDSVKGRFTISRDNAKNTLYLQMSSLKSEDTAMYYCAREIMRGGGYYFDYWSQGTTLTVSS
VL: DIQMIQSTSSLSASLGDRVTISCRASQDISNYLNWYQQKPDGTVKLLIYYTSRLHSGVPSRFSGSGSGTDYSLTISNLEQEDIATYFCQQGNTLPYTFGGGTKLEIKR
notes: also called M1H5 IgG; not shown: human IgG1 constant domains (IgG-Abvec vector); human kappa constant domain (Igκ-Abvec vector)
As to B1, the binding result in assay [1] and in [2] was “no binding (tested: 1 nM)” in each case.

B2: M1F10 single-chain antibody fragment (scAb) (scFv, not shown: a dimerising Fc or GST)
scFv: DIVMTQSPASLAVSLGQRATISCRASESVGNYGISFTNWYQQKPGQPPKLLIYAASNLESGIPARFSGSGSGTDFTLNIHPVEEEDAATYYCQQSNEDPYTFGGGTKLEIKRGGGGGGSGGGGSGGGGSGGGGSEVKLVESGGDLVKPGGSLKLSCAASGFTFSSYGMSWVRQTPDKRLEWVATISSGGTYTYYPDSVKGRFTISRDNAKNTLYLQMSSLKSEDTAMYYCAREIMRGGGYYFDYWGQGTTLTVSS
With B2, the “reduction of intracellular cAMP level in J774A.1 cells, scAb at 160-fold molar excess over ACT” value (“reduction … at 160-fold molar excess over ACT” below) in assay [3] is more than 90%.

B3: M1E2 single-chain antibody fragment (scAb) (scFv, not shown: a dimerising Fc or GST)
scFv: DIVMTQSPAIMSASLGERVTMTCTASSSVSSSYLHWYQQKPGSSPKLWIYSTSNLASGVPARFSGSGSGTSYSLTISSMEAEDAATYYCHQYHRSPPTFGGGTKLEIKRGGGGGGSGGGGSGGGGSGGGGSQVQLKQSGAELVRPGTSVKVSCKASGYAFTNYLIEWVKQRPGQGLEWIGVINPGIGNTNYNEKFKGKATLTADKSSSTVYMQLSSLTSDDSAVYFCARGLNYGSSQHWYFDVWGAGTTVTVSS
B3: the “reduction … at 160-fold molar excess over ACT” value in [3] is more than 90%.

B4: M2B10 single-chain antibody fragment (scAb) (scFv)
scFv: DIVMTQSPAILSASLGERVTMTCTASSSVSSSYLHWYQQKPGSSPKLWIYSTSNLASGVPARFSGSGSGTSYSLTISSMEAEDAATYYCHQYHRSPPTFGAGTKLEIKRGGGGGGSGGGGSGGGGSGGGGSEVQLQQSGAELVRPGTSVKVSCKASGYAFTNYLIEWVKQRPGQGLEWIGVINPGIGNTNYNEKFKGKATLTADKSSSTVYMQLSSLTSDDSAVYFCARGLNYGSSQHWYFDVWGAGTSVTVSS
As for B4, the “reduction … at 160-fold molar excess over ACT” value in assay [3] is more than 90%.

B5: M1H1 single-chain antibody fragment (scAb) (scFv, not shown: a dimerising Fc or GST)
scFv: DIVMTQSPAIMSASLGERVTMTCTASSSVSSSYLHWYQQKPGSSPKLWIYSTSNLASGVPARFSGSGSGTSYSLTISSMEAEDAATYYCHQYHRSPPTFGGGTKLELKRGGGGGGSGGGGSGGGGSGGGGSQVQLQQSGAELVRPGTSVKVSCKASGYAFTNYLIEWVKQRPGQGLEWIGVINPGIGNTNYNEKFKGKATLTADKFSSTASMQLSSLTSDDSAVYFCARGLNYGSSQHWYFDVWGAGTSVTVSS
Consider B5, for which, in assay [3], the “reduction … at 160-fold molar excess over ACT” value was more than 90%.

B6: M2C2 single-chain antibody fragment (scAb) (scFv, not shown: a dimerising Fc or GST)
scFv: DIVLTQSPAIMSASLGERVTMTCTASSSVSSSYLHWYQQKPGSSPKLWIYSTSNLASGVPARFSGSGSGTSYSLTISSMEAEDAATYYCHQYHRSPPTFGGGTKLEIKRGGGGGGSGGGGSGGGGSGGGGSQVQLQQSGPELGKPGASVKISCKASGYLFTGYNIYWVKQSHRKSLEWIGYINPYNGDTSYNQKSKGKATLTVDRSSSTAYMHLNSLTSEDSAIYFCARGYYVRPLDYWGQGTTLTVSS
As to B6, the “reduction … at 160-fold molar excess over ACT” value in [3] is more than 90%.

B7: M2B10 antibody (format not stated) (antibody, V domains shown)
VH: EVQLQQSGAELVRPGTSVKVSCKASGYAFTNYLIEWVKQRPGQGLEWIGVINPGIGNTNYNEKFKGKATLTADKSSSTVYMQLSSLTSDDSAVYFCARGLNYGSSQHWYFDVWGAGTSVTVSS
VL: DIVMTQSPAILSASLGERVTMTCTASSSVSSSYLHWYQQKPGSSPKLWIYSTSNLASGVPARFSGSGSGTSYSLTISSMEAEDAATYYCHQYHRSPPTFGAGTKLEIKR
Usually Kd stands for the concentration at which binding is half-saturated. The molecule B7 returned a dissociation constant (Kd) in assay [4] of approximately 1.2 nM. For the same molecule, in [3], the “IC50, J774A.1 macrophage cell line intoxication assay with 125 ng/mL ACT (0.7 nM)” value was determined as 6 nM.

B8: M2B10 chimeric IgG1/κ antibody (antibody, V domains shown)
VH: EVQLQQSGAELVRPGTSVKVSCKASGYAFTNYLIEWVKQRPGQGLEWIGVINPGIGNTNYNEKFKGKATLTADKSSSTVYMQLSSLTSDDSAVYFCARGLNYGSSQHWYFDVWGAGTSVTVSS
VL: DIVMTQSPAILSASLGERVTMTCTASSSVSSSYLHWYQQKPGSSPKLWIYSTSNLASGVPARFSGSGSGTSYSLTISSMEAEDAATYYCHQYHRSPPTFGAGTKLEIKR
notes: also called M2B10 IgG; not shown: human IgG1 constant domains (IgG-Abvec vector); human kappa constant domain (Igκ-Abvec vector)
By EC50 (read off the curve) is commonly meant the concentration that produces a half-maximal response. Read a high EC50 (read off the curve) as lower potency in that assay. Consider B8, for which the binding result in [5] and in assay [6] was “no binding (tested: 1 nM)” throughout. Further, the “EC50 (read off the curve)” value with Br-RTX751 is approximately 0.05 nM; in [7] it was approximately 0.04 nM; in [8], approximately 0.04 nM; in assay [9] it was approximately 0.04 nM; in [10] it was approximately 0.05 nM; in the assay with Bpp-RTX751 it was approximately 0.05 nM.

B9: M2C2 antibody (format not stated) (antibody, V domains shown)
VH: QVQLQQSGPELGKPGASVKISCKASGYLFTGYNIYWVKQSHRKSLEWIGYINPYNGDTSYNQKSKGKATLTVDRSSSTAYMHLNSLTSEDSAIYFCARGYYVRPLDYWGQGTTLTVSS
VL: DIVLTQSPAIMSASLGERVTMTCTASSSVSSSYLHWYQQKPGSSPKLWIYSTSNLASGVPARFSGSGSGTSYSLTISSMEAEDAATYYCHQYHRSPPTFGGGTKLEIKR
The molecule B9 had a Kd in assay [4] of approximately 1.5 nM. Moreover, the “IC50, J774A.1 macrophage cell line intoxication assay with 125 ng/mL ACT (0.7 nM)” value in [3] was 8.1 nM.
